The values that follow come from patent publication US20040180360, “Multivalent aptamer therapeutics with improved pharmacodynamic properties and methods of making and using the same” (published 2004).

The target in data set [1] is T1, PDGF-BB (UniProt P01127 P01127:82-190). The data set is described as follows: 10 or 100 nM splint DNA enhances affinity of bidentate aptamer. The note with it: chain copies: 2 (inferred, homodimer); linker region hybridised to 40-nt splint oligonucleotide. The text has this:
(§1) High molecular weight aptamer compositions capable of binding to platelet derived growth factor (PDGF) were produced using the following methods. A dimeric, or bidentate PDGF aptamer having the sequence shown in FIG. 4(A) was synthesized using standard reagents (oligonucleotides supplied by Integrated DNA Technologies, Coralville, Iowa). As shown in FIG. 4(B), the enhanced affinity of the bidentate aptamer to its target (either PDGF BB or AB) was greatest at higher protein concentrations where the binding conditions were 25° C. in 1×PBS with an RNA ligand concentration of <10 pM. […] This enhancement could reflect a splint-dependent reduction in rotational degrees of freedom within the linker region, leading to an increase in the effective concentration of the bidentate ligand. The addition of splint DNA to the monovalent aptamer to PDGF-BB had no effect on binding affinity (FIG. 5).

The target in the next data set is PDGF-AB (UniProt P04085;P01127 P04085:87-211,P01127:82-190). Kind of data set: enhanced affinity stated for PDGF BB or AB; 1x PBS, 25 C, ligand <10 pM.
Description: as §1

For data set [2], the target named is T1, PDGF-BB. The data set is described as follows: enhanced affinity vs monomer, greatest at higher protein concentration; 1x PBS, 25 C, ligand <10 pM. The note with it: chain copies: 2 (inferred, homodimer).
Description: as §1

A further data set concerns the target T2, TGFβ2 (UniProt P61812 P61812:303-414).
T2 sequence: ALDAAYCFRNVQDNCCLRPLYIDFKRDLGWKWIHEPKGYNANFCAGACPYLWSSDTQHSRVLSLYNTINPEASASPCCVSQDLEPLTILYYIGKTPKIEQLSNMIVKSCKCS
The data set is described as follows: competition; monodentate control with 5-bp extension; competes similarly to bidentates with linkers of 30 nt or more. As to conditions: chain copies: 2 (inferred, homodimer).

T1 sequence (P01127 82-190, one chain of several): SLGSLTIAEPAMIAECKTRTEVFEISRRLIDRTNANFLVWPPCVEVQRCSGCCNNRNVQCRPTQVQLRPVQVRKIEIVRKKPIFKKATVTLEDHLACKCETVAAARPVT
Chain of PDGF-AB (P01127 82-190, chain 2 of 2, other chains not shown): as the sequence (P01127 82-190, one chain of several) above

B1: PDGF bidentate aptamer + splint DNA (structured_DNA)
DNA 1: TACTCAGGGCACTGCAAGCAATTGTGGTCCCAATGGGCTGAGTATGTGGTCTATGTCGTCGTTCGCTAGTAGTTCCTGGGCTGCACTCGAGGCGTAGAATTCCCCCGATGCGCGCTGTTCTTACTCAGGGCACTGCAAGCAATTGTGGTCCCAATGGGCTGAGTAT
DNA 2: AAAGGAATTCTACGCCTCGAGTGCAGCCCAGGAACTATTT
Take B1: the binding result in the data set with PDGF-BB [1] is “binds”.

B2: PDGF bidentate aptamer (ssDNA)
DNA: TACTCAGGGCACTGCAAGCAATTGTGGTCCCAATGGGCTGAGTATGTGGTCTATGTCGTCGTTCGCTAGTAGTTCCTGGGCTGCACTCGAGGCGTAGAATTCCCCCGATGCGCGCTGTTCTTACTCAGGGCACTGCAAGCAATTGTGGTCCCAATGGGCTGAGTAT
Regarding B2, the binding result with PDGF-AB and with PDGF-BB [2] was “binds” throughout.

For the molecule GCGCCGAGGUUAUUACAGAGUCUGUAUAGCUGUACUCGGCGC (ssRNA, 2'-F pyrimidines (inferred)) [ARC77 with 5-bp terminal extension], the binding result in the data set with TGFβ2 is reported as “binds”.
